The test addresses recombinant histone H2B (UniProt P06899). In words: SEC + other: RP-HPLC; synthetic H2A.Z and recombinant H2B unfolded together (7 M Gdn·HCl, 20 mM mercaptoethanol, 20 mM Tris·HCl, pH 7.5; 2 h on ice), dialysed three times against refolding buffer (2.0 M NaCl, 2.0 mM mercaptoethanol, 10 mM Tris·HCl, pH 7.5) at 4 °C for 3 h; SEC of the reconstituted mixture, then RP-HPLC at 280 nm; ratio from peak areas and the number of tyrosines.

On to “synthetic histone H2A.Z (from UniProt P0C0S5 1-128) (natural protein)”, for which the stoichiometry N worked out at 1.

The term stoichiometry N denotes a count of units in the complex or per binding partner.

The values above are taken from article PMC6566460.
